The text below walks through data of patent publication US20160243251.

What is called Kd is the free concentration of one partner at which half of the binding sites on the other are occupied at equilibrium, for simple one-to-one binding.

Common to all, as to assay: FP
For data set [1], the system named is TMR-β3Kβ3Rβ3Rβ3R-NH2 (synthetic). The conditions noted are these: 2 mM NaCl, pH 7.4.
Data set [2] has as its system T1, TMR-(CH2)5-DKDRDRDR-NH2 (synthetic).
T1 sequence: KRRR
The settings on record: 2 mM NaCl, pH 7.4.

Data set [3] deals with T2, TMR-KRRR-NH2 (TMR-LKLRLRLR-NH2) (synthetic).
T2 sequence: KRRR
The settings on record: 2 mM NaCl, pH 7.4.

Data set [4] concerns TMR-KKKK-NH2 (TMR-LKLKLKLK-NH2) (synthetic). The settings on record: 2 mM NaCl, pH 7.4.
Data set [5] concerns T3, TMR-KRRR (TMR-LKLRLRLR, C-terminal carboxylate) (synthetic).
T3 sequence: KRRR
The settings on record: CITED Xiong et al; pH 7.4; DNA assumed same 30-mer; cited from earlier work.

Data set [6] relates to KRRRC(-TMR)-NH2 (LKLRLRLRLC(-TMR)-NH2) (synthetic). The settings on record: 2 mM NaCl, pH 7.4; p253 text gives 46 ± 9.
Data set [7] has as its system T4, TMR-(CH2)5-KRRR-NH2 (L) (synthetic).
T4 sequence: KRRR
The conditions noted are these: 2 mM NaCl, pH 7.4.

Data set [8] deals with TMR-RRRK-NH2 (TMR-LRLRLRLK-NH2) (synthetic). The settings on record: 2 mM NaCl, pH 7.4.
Data set [9] has as its system T5, TMR-DKDRDRDR-NH2 (synthetic).
T5 sequence: KRRR
The conditions noted are these: 2 mM NaCl, pH 7.4.

Data set [10] deals with TMR-RRRR (TMR-LRLRLRLR, C-terminal carboxylate) (synthetic). The settings on record: CITED Xiong et al; pH 7.4; DNA assumed same 30-mer; cited from earlier work.
The subject of data set [11] is T6, TMR-LKDRLRDR-NH2 (synthetic).
T6 sequence: KRRR
The settings on record: 2 mM NaCl, pH 7.4.

Data set [12] deals with TMR-RRRR-NH2 (TMR-LRLRLRLR-NH2) (synthetic). The conditions noted are these: 2 mM NaCl, pH 7.4.
Data set [13] concerns TMR-LRS-LRS-LRS-LRS-NH2 (tetra L-2-amino-3-guanidinopropionic acid) (synthetic). The conditions noted are these: 2 mM NaCl, pH 7.4.
The test system of data set [14] is TMR-β3Rβ3Rβ3Rβ3K-NH2 (synthetic). The conditions noted are these: 2 mM NaCl, pH 7.4.
Data set [15] concerns TMR-LRL-LRL-LRL-LRL-NH2 (tetra L-homo-arginine) (synthetic). The conditions noted are these: 2 mM NaCl, pH 7.4.
Data set [16] has as its system TMR-DRDRDRDK-NH2 (synthetic). The conditions noted are these: 2 mM NaCl, pH 7.4.

“GACGACTAGGACGACGACGAGGATGACGAC (double strand) [30-mer dsDNA]”: the dissociation constant Kd was 41 nM in [1]; 47 nM in data set [2]; 46 nM in [3]; 53 nM in data set [4]; 197 nM in [5]; 54 nM in [6]. Besides, the dissociation constant (Kd) in data set [7] was 46 nM; in [8], 28 nM; in [9], 44 nM; in data set [10], 236 nM; in data set [11] it was 36 nM; in data set [12], 31 nM. Further, the equilibrium dissociation constant (Kd) in data set [13] came to 129 nM; in data set [14] it was 49 nM; in data set [15], 13 nM; in data set [16], 37 nM.
